Target: insertion mutant recombinant human prion protein with five additional octapeptide repeats (human) (UniProt P04156)
Assay: AFM height measurement with a calibration curve of marker proteins

**Q.** “insertion mutant recombinant human prion protein with five additional octapeptide repeats (from UniProt P04156 23-231) (natural protein)” was tested. Which stoichiometry N did it give?
**A.** 11 to 22 monomers
